Article PMC12822440, “An Aptamer‐Based EXACT Anticoagulant as a Sustainable, Animal‐Free Alternative to Unfractionated Heparin”

How the values were obtained:
[1] = target: T1, thrombin (alpha-thrombin) (UniProt P00734;P00734 315-363;364-622); assay: filter binding; Nitrocellulose filter binding, 32P 5'-labelled aptamer (500 CPM/uL), selection buffer (composition not given), 5 min at room temperature, n = 2
[2] = target: T1, thrombin (alpha-thrombin); assay: filter binding; dabigatran covalently attached to the aptamer, occupies the active site; Nitrocellulose filter binding, 32P 5'-labelled aptamer (500 CPM/uL), selection buffer (composition not given), 5 min at room temperature, n = 2
[3] = target: prothrombin (UniProt P00734 44-622); assay: filter binding; dabigatran covalently attached to the aptamer; Nitrocellulose filter binding, 32P 5'-labelled aptamer (500 CPM/uL), selection buffer (composition not given), 5 min at room temperature, n = 2; conditions: protein: commercial; label: 5'-32P

| Binder | Kd [1] [nM] | Kd [2] [nM] | Kd [3] [nM] |
| --- | --- | --- | --- |
| GGTTGGTGTGGTTGG (structured_DNA) [HD1] | 110 | – | – |
| GGTTGGTGTGGTTGGAAAAAAAAAAAA (structured_DNA, 3'-dabigatran conjugate (DAB) through 12-nt dA linker) [HD1-12A-DAB] | – | 0.0131 | 296 |
